Measured values from patent publication US20220409550A1 (KOREA INSTITUTE OF SCIENCE AND TECHNOLOGY, published 2022).

Target: murine PD-L1 on CHO-K1 cells (murine, UniProt Q9EP73 19-290)
Assay: cell-based or functional assay

murine PD-L1 on CHO-K1 cells, sequence (Q9EP73 19-290): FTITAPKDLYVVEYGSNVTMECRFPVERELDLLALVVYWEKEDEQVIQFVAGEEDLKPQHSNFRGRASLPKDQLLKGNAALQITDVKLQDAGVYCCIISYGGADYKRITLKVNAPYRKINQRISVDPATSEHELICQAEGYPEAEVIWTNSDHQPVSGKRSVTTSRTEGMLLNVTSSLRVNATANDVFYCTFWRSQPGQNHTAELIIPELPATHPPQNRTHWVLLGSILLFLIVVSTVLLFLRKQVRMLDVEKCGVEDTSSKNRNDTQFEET

half maximal effective concentration (EC50), NFAT-mediated luciferase expression, bioluminescent PD-1/PD-L1 blockade bioassay: 457 nM
B1: monomeric form of soluble PD-1 (sPD-1) of the ecto-domain of murine PD-1 (receptor)
chain: MHHHHHHLEVPNGPWRSLTFYPAWLTVSEGANATFTCSLSNWSEDLMLNWNRLSPSNQTEKQAAFCNGLSQPVQDARFQIIQLPNRHDFHMNILDTRRNDSGIYLCGAISLHPKAKIEESPGAELVVT
